Assay results: patent US20240343803A1 (SHANDONG SIMCERE BIOPHARMACEUTICAL, published 2024)

What was measured:
[1] = molecular target: T1, human PVRIG-his (AcroBiosystems, Cat NO. PVG-H52H4) (human, UniProt Q6DKI7 41-171, limits assumed); assay: ELISA, coated human PVRIG-his
T1 construct: treated as the same protein; also called human PVRIG-His protein; Human PVRIG-His, Acro C227P1-9ARF1-T4
T1 sequence (looked up): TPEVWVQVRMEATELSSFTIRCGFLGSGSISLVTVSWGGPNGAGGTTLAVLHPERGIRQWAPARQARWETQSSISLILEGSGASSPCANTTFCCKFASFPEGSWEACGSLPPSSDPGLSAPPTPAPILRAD

[2] = molecular target: T2, cynomolgus monkey PVRIG (Novoprotein, Cat NO. C09B) (cynomolgus monkey, UniProt A0A2K5WVV8 41-171); assay: ELISA, coated cynomolgus monkey PVRIG
T2 construct: bought reagent; also called cynomolgus monkey PVRIG recombinant protein
T2 sequence: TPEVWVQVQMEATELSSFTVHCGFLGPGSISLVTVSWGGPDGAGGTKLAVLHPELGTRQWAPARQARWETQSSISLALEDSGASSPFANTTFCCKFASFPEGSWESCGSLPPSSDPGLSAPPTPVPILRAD

[3] = molecular target: T3, cynomolgus monkey PVRIG on FlpinCHO-cyno PVRIG cells (cynomolgus monkey, UniProt A0A2K5WVV8 41-322); assay: FACS, FlpinCHO-cyno PVRIG cells
T3 construct: whole, on cells; also called FlpinCHO-cynomolgus monkey PVRIG
T3 sequence: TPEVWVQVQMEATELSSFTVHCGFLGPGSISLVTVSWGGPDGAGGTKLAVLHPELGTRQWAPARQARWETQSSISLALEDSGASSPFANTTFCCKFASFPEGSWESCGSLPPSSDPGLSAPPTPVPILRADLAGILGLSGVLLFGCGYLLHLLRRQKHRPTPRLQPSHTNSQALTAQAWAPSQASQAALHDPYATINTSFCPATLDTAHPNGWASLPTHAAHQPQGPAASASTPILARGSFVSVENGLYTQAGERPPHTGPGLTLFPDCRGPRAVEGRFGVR
Procedure: After discarding the cell culture medium, the cells were rinsed with PBS and digested for 8-10 minutes by adding 1 mL Versene (Gibico, 15040-066). The Ham's F12 (Gibico, 21127-022) complete medium containing 10% FBS was then added to terminate the digestion and acquire cell suspension. After counting with a cell counter (Beckman Coulter, Vi-CELL), an appropriate amount of cell suspension was centrifuged at 350×g to remove the supernatant, washed twice with PBS, stained with Zombie violet (Biolegend, 423114) and incubated at room temperature for 20 minutes. After incubation, the cells were added with staining buffer (2% FBS+PBS) to stop staining, centrifuged at 350×g to remove the supernatant, washed twice and resuspended with staining buffer to a density of 2×10⁶ cells/mL. The cells were plated into a 96-well plate (50 μL of cell suspension per well) for further use. The antibodies were diluted from the highest concentration of 46 nM (two-fold concentration) with staining buffer by 3.3-fold serial dilution. The diluted antibodies were added to the well containing 50 μL of cell suspension. The plate was placed on a microplate shaker at 400 rpm for 1 minute to fully mix the antibodies and cells, and then incubated at 4° C. for 30 minutes. After the incubation, the cells were washed twice with staining buffer (200 μL per well) and centrifuged at 350×g for 5 minutes to discard the supernatant. The PE goat anti-human IgG Fc antibody (ebioscience, 12-4998-82) was diluted 250 times with staining buffer, added into the washed wells (100 μL per well), mixed well, and stained at 4° C. for 30 minutes. After staining, the cells were washed twice with staining buffer, finally resuspended with 200 μL staining buffer and analyzed by flow cytometry (BD, Canto II). […] An antibody binding curve was drawn with concentration of antibodies as the abscissa and the corresponding Mean Fluorescence Intensity (MFI) as the ordinate. The AUC value of the curve was calculated by using a Four Parameter Logistic Fit (GraphPadPrism9). […]

[4] = molecular target: T3, cynomolgus monkey PVRIG on …; assay: FACS, FlpinCHO cynomolgus monkey PVRIG cells
Procedure: CHO-K1 stable cells ([…]-61™) transfected with human or cynomolgus monkey PVRIG high expression plasmids were named FlpinCHO-hPVRIG and FlpinCHO-cynoPVRIG. […] After discarding the cell culture medium, the cells were rinsed with PBS and digested for 8-10 minutes by adding 1 mL Versene (Gibico, 15040-066). The Ham's F12 (Gibico, 21127-022) complete medium containing 10% FBS was then added to terminate the digestion and acquire cell suspension. After cell counting, an appropriate amount of cell suspension was centrifuged at 350×g to remove the supernatant, washed twice with PBS, stained with Zombie violet (Biolegend, 423114) and incubated at room temperature for 20 minutes. After incubation, the cells were added with staining buffer (2% FBS+PBS) to stop staining, centrifuged at 350×g to remove the supernatant, washed twice and resuspended with staining buffer to a density of 2×10⁶ cells/mL. The cells were plated into a 96-well plate (50 μL of cell suspension per well) for further use. The antibodies were diluted from the highest concentration of 46 nM (two-fold concentration) with staining buffer by 3.3-fold serial dilution. The diluted antibodies were added to the well containing 50 μL of cell suspension. […] After staining, the cells were washed twice with staining buffer, finally resuspended with 200 μL staining buffer and analyzed by flow cytometry (BD, Canto II).

[5] = molecular target: T3, cynomolgus monkey PVRIG on …; assay: FACS, FlpinCHO-cyno PVRIG cells; remark: listed apart in the source
[6] = molecular target: T4, full-length cynomolgus monkey TIGIT on CHO-K1 cells (CHO-K1 cynomolgus monkey TIGIT) (cynomolgus monkey); assay: FACS, CHO-K1 cynomolgus monkey TIGIT cells
T4 construct: NCBI XP_015300911.1; also called cynomolgus monkey TIGIT cells
Procedure: (§1) The collected cells were washed once with PBS (Hyclone, Cat NO. SH30256), resuspended to 2×10⁵/50 μL with 1% BSA-PBS. The antibodies were diluted to 80 nM with 1% BSA-PBS (diluted by 3-fold serial dilution for 12 concentration points). The 50 μL cells were then mixed with 50 μL diluted antibodies, and then incubated at 4° C. for 60 minutes. […] After washing twice with PBS, the cell samples were resuspended with 1% BSA-PBS, 100 μL/well and then analyzed by flow cytometry (BD, Canto II).

[7] = molecular target: T5, full-length human TIGIT on CHO-K1 cells (CHO-K1 human TIGIT) (human, UniProt Q495A1 22-244); assay: competition FACS; blocked: Bio-CD155-His binding to CHO-K1 human TIGIT cells
T5 construct: NCBI XP_024309156.1; entry includes the signal peptide; also called high expression strain 1D2; medium expression strain 2D10
T5 sequence: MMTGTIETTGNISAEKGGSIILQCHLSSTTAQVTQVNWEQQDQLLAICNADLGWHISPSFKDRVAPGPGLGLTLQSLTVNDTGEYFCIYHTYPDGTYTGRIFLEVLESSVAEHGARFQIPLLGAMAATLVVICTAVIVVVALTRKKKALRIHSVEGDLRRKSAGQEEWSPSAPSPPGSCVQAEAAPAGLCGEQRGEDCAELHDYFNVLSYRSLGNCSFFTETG
Procedure: The collected cells were washed once with PBS (Hyclone, SH30256), resuspended to 2×10⁵/40 μL with 1% BSA-PBS. The antibodies were diluted to 210 nM with 1% BSA-PBS (diluted by 3-fold serial dilution for 12 concentration points). […] The 40 μL cells were then mixed with 40 μL diluted antibodies and 40 μL diluted Bio-CD155-His, and then incubated at 4° C. for 60 minutes. The cells were washed twice with PBS, resuspended with APC labeled streptavidin (dilution ratio 1:1700, Biolegend, 405243), 100 μL/well, and incubated at 4° C. for 40 minutes. The cell samples were washed twice with PBS, resuspended with 1% BSA-PBS (100 μL/well) and then analyzed by flow cytometry (BD, Canto II).

[8] = molecular target: T5, full-length human TIGIT on CHO-K1 cells …; assay: FACS, CHO-K1 human TIGIT medium expression strain
Procedure: as §1

[9] = molecular target: T6, TIGIT on human PBMCs stimulated by SEA (human, UniProt Q495A1 22-244); assay: FACS, SEA-stimulated human PBMCs
T6 construct: whole, on cells
T6 sequence (looked up): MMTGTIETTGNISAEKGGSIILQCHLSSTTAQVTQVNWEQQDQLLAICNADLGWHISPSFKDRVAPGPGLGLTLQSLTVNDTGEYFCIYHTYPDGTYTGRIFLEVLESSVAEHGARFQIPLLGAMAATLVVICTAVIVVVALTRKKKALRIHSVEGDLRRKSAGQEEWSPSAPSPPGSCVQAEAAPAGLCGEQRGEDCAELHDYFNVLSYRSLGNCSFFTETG
Procedure: The fresh human PBMCs (AllCells, PB004-C) were adjusted to a density of 5×10⁵/mL, added with SEA (Toxin Technology, Inc., AT101) to 100 ng/mL, and cultured at 37° C. with 5% CO₂ for 3 days. The cells were collected 3 days later, washed once with PBS (Hyclone, SH30256), added with Fc Block (BD, 564220) and then incubated at 4° C. for 10 minutes. After washing twice with PBS, the PBMCs were resuspended to 2×10⁵/50 μL with 1% BSA-PBS. The humanized antibodies were diluted to 80 nM with 1% BSA-PBS (diluted by 3-fold serial dilution for 12 concentration points). The 50 μL cells were then mixed with 50 μL diluted antibodies, and then incubated at 4° C. for 60 minutes. […] After washing twice with PBS, the cell samples were resuspended with 1% BSA-PBS, 100 µL/well, and then analyzed by flow cytometry (BD, Canto II).

[10] = molecular target: T5, full-length human TIGIT on CHO-K1 cells …; assay: FACS, CHO-K1 human TIGIT low expression strain
Procedure: as §1

[11] = molecular target: T5, full-length human TIGIT on CHO-K1 cells …; assay: FACS, CHO-K1 human TIGIT high expression strain
Procedure: as §1

T4 sequence (chain, as listed by the source limits assumed): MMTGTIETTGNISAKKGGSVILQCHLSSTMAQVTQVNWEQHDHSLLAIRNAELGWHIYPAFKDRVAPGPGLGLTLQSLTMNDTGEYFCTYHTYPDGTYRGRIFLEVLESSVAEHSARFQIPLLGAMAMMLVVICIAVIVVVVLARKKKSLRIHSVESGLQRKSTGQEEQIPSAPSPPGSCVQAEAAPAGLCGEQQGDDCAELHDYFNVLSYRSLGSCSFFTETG

B1: COM701-hIgG1 (antibody, V domains shown)
VH: QVQLVQSGAEVKKPGASVKVSCKASGYTFTDYNINWVRQAPGQGLEWMGYIYPYIGGSGYAQKFQGRVTMTRDTSTSTVYMELSSLRSEDTAVYYCAREDKTARNAMDYWGQGTLVTVSS
VL: DIQMTQSPSSLSASVGDRVTITCRVSENIYSNLAWYQQKPGKAPKLLIYEATNLAEGVPSRFSGSGSGTDFTLTISSLQPEDFATYYCQHFWGTPYTFGQGTKLEIK
notes: human IgG1 format by its name
[1]
  EC50 (read off the curve): ~0.06 nM
[2]
  EC50 (read off the curve): ~0.04 nM
[3]
  EC50 (read off the curve): ~0.5 nM
[4]
  EC50 (read off the curve): ~0.5 nM
[5]
  EC50 (read off the curve): ~0.6 nM

B2: TIGIT-002-H4L3 (antibody, V domains shown)
VH: EVQLQESGPGLVKPSETLSLTCAVSGYSITSDSWNWIRQPPGKKLEYIGYISYSGNTYYNPSLKSRVTISRDTSKNQFSLKLSSVTAADTAVYYCARLDFSNYGGAVDYWGQGTTVTVSS
VL: DIVMTQSPDSLAVSLGERATINCKASQNVRTAVAWYQQKPGQSPKLMIYSASYRYTGVPDRFSGSGSGTDFTLTISSLQAEDVAVYYCQQYYTTPWTFGGGTKVEIK
notes: humanized; 002.VH4 with 002.VL3
[6]
  EC50 (read off the curve): ~0.4 nM
[7]
  IC50 (read off the curve): ~0.09 nM
[8]
  EC50 (read off the curve): ~0.1 nM
[9]
  EC50 (read off the curve): ~0.06 nM
[10]
  EC50 (read off the curve): ~0.1 nM
[11]
  EC50 (read off the curve): ~0.2 nM

B3: TIGIT-005-H2L1d (antibody, V domains shown)
VH: EVQLVQSGAEVKKPGASVKVSCKASGYAFTNYLIEWVRQAPGQRLEWMGVINPGSGGTNYKEKFKGRVTITADKSSSTAYMELSSLRSEDTAVYYCARGEYFFFDYWGQGTTVTVSS
VL: DIVMTQSPDSLAVSLGERATINCKASQHVSNAVAWYQHKPGQSPKLLIYSASYRYTGVPDRFSGSGSGTDFTLTISSLQAEDVAVYYCQQHYNTPHTFGGGTKVEIK
notes: humanized; 005.VH2 with 005.VL1d
[6]
  EC50 (read off the curve): ~0.4 nM
[7]
  IC50 (read off the curve): ~0.09 nM
[8]
  EC50 (read off the curve): ~0.1 nM
[9]
  EC50 (read off the curve): ~0.09 nM
[10]
  EC50 (read off the curve): ~0.09 nM
[11]
  EC50 (read off the curve): ~0.2 nM
